Patent US20260092918A1

Target: H2-K (b) OVA 257-264 SIINFEKL peptide-MHC (mouse) (UniProt P01901)
Test: cell-based or functional assay

Sequence of UniProt P01901 (P01901 22-305 limits assumed): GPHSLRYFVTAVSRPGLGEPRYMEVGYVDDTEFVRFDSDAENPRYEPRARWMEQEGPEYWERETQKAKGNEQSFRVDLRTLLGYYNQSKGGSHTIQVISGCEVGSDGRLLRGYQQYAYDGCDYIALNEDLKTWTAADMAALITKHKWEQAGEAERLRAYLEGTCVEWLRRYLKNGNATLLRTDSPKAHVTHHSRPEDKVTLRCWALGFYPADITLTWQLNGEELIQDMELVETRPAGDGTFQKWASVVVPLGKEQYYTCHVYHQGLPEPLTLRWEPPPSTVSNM

TCR tension signal, OT1 T-cells cultured in ACM relative to UCM (decrease): 37 % decrease
TCR tension signal, OT1 T-cells cultured in SCM relative to UCM (increase): 1240 % increase
Substance: OT-1 TCR on OT-1 T-cells
